Residue numbers refer to the chain shown, from its start. Numbers in names are those of the source.
T1: human BCMA protein expressed on the cell surface (human, UniProt Q02223 1-184)
T1 construct: whole, on cells; also called CHO-K1-huBCMA; CHOK1-huBCMA
T1 sequence (looked up): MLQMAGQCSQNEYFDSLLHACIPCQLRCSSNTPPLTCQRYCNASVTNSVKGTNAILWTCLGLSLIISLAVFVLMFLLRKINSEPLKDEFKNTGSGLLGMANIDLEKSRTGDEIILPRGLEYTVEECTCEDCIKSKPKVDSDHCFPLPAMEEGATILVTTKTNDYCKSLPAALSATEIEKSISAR

T2: human BCMA-His protein (ACRO, Cat#: BCA-H522y) (human, UniProt Q02223 1-54)
T2 construct: Bought protein; also called Human BCMA protein; huBCMA-his
T2 sequence: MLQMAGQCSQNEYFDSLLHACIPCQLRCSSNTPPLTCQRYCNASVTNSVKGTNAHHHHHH

B1: humanized anti-GPRC5D VHH-Fc antibody 8H5 (antibody, human IgG1, V domains shown)
VH: EVQLLESGGGLVQPGGSLRLSCAASGIFLSASVMSWYRQAPGKQRELVASMLNSNTNYADSVKGRFTISRDNSKNTMYLQMNSLRAEDTAVYYCNAERSGVYWGQGTQVTVSS
notes: also called hu8H5; humanized anti-GPRC5D VHH 8H5-Fc
B2: 2xhuBH56-3-CD3ScFv (bispecific antibody)
heavy 1: EVQVVESGGGLIQPGGSLRLSCAASGFTFAPSAMSWARQPPGKEVEWVSGIYGDGRTTYADSVKGRFTISRDNSKNTVYLQMNSLRAEDTAVYYCVVGIRLLSESWAQALRGQGTQVTVSSGGGGSEVQVVESGGGLIQPGGSLRLSCAASGFTFAPSAMSWARQPPGKEVEWVSGIYGDGRTTYADSVKGRFTISRDNSKNTVYLQMNSLRAEDTAVYYCVVGIRLLSESWAQALRGQGTQVTVSSEPKSSDKTHTCPPCPAPEAAGGPSVFLFPPKPKDTLMISRTPEVTCVVVAVSHEDPEVKFNWYVDGVEVHNAKTKPREEQYNSTYRVVSVLTVLHQDWLNGKEYKCKVSNKALAAPIEKTISKAKGQPREPQVCTLPPSRDELTKNQVSLSCAVKGFYPSDIAVEWESNGQPENNYKTTPPVLDSDGSFFLVSKLTVDKSRWQQGNVFSCSVMHEALHNHYTQKSLSLSPGK
heavy 2: not shown
notes: HC1 carries two huBH56-3 VHHs in tandem (GGGGS linker) on Fc hole; HC2 is CD3ScFv-knob; also called anti-CD3/BCMA bispecific antibody; diabody
B3: 2xhuHA68-4-CD3ScFv (bispecific antibody)
heavy 1: EVQLVETGGGLIQPGGSLRLSCAASGFTFSPSAMSWARQAPGKGLEWVSGIYGDGKAEYADSVKGRFTISRDNSKNTVYLQMNSLRAEDTAVYSCAVGIRPTDAPWAASLRGQGTLVTVSSGGGGSEVQLVETGGGLIQPGGSLRLSCAASGFTFSPSAMSWARQAPGKGLEWVSGIYGDGKAEYADSVKGRFTISRDNSKNTVYLQMNSLRAEDTAVYSCAVGIRPTDAPWAASLRGQGTLVTVSSEPKSSDKTHTCPPCPAPEAAGGPSVFLFPPKPKDTLMISRTPEVTCVVVAVSHEDPEVKFNWYVDGVEVHNAKTKPREEQYNSTYRVVSVLTVLHQDWLNGKEYKCKVSNKALAAPIEKTISKAKGQPREPQVCTLPPSRDELTKNQVSLSCAVKGFYPSDIAVEWESNGQPENNYKTTPPVLDSDGSFFLVSKLTVDKSRWQQGNVFSCSVMHEALHNHYTQKSLSLSPGK
heavy 2: not shown
notes: HC1 carries two huHA68-4 VHHs in tandem (GGGGS linker) on Fc hole; HC2 is CD3ScFv-knob; also called anti-CD3/BCMA bispecific antibody; diabody
B4: 269B094 (a fully human monoclonal antibody targeting BCMA) (antibody, V domains shown)
VH: DVQLVESGGGLVQPGGSLRLSCAASGRTFSSIVMGWFRQAPGKEREFVGAIMWNDGITYLQDSVKGRFTIFRDNAKNTVYLQMNSLKLEDTAVYYCAASKGRYSEYEYWGQGTQVTVSS
notes: also called control antibody; control sample
B5: huHA68-4-CD3ScFv (bispecific antibody)
heavy 1: EVQLVETGGGLIQPGGSLRLSCAASGFTFSPSAMSWARQAPGKGLEWVSGIYGDGKAEYADSVKGRFTISRDNSKNTVYLQMNSLRAEDTAVYSCAVGIRPTDAPWAASLRGQGTLVTVSSEPKSSDKTHTCPPCPAPEAAGGPSVFLFPPKPKDTLMISRTPEVTCVVVAVSHEDPEVKFNWYVDGVEVHNAKTKPREEQYNSTYRVVSVLTVLHQDWLNGKEYKCKVSNKALAAPIEKTISKAKGQPREPQVCTLPPSRDELTKNQVSLSCAVKGFYPSDIAVEWESNGQPENNYKTTPPVLDSDGSFFLVSKLTVDKSRWQQGNVFSCSVMHEALHNHYTQKSLSLSPGK
heavy 2: not shown
notes: HC1 huHA68-4-hole; HC2 CD3ScFv-knob; also called anti-CD3/BCMA bispecific antibody; diabody
B6: BH56-IgG (antibody, V domains shown)
VH: EVQVVESGGGLVQAGESLTLSCAASGFTFAPSAMSWARQPPGKEVEWVSGIYGDGRTTYADSVKGRFTISRDNAKKTVTLQMNNLEPEDSGNYICVVGIRLLSESWAQALRGQGTQVTVSS
notes: also called anti-human BCMA chimeric antibody
B7: huBH56-3-IgG (antibody, V domains shown)
VH: EVQVVESGGGLIQPGGSLRLSCAASGFTFAPSAMSWARQPPGKEVEWVSGIYGDGRTTYADSVKGRFTISRDNSKNTVYLQMNSLRAEDTAVYYCVVGIRLLSESWAQALRGQGTQVTVSS
notes: Humanized VHH-Fc heavy-chain antibody; Fc with L234A, L235A, D265A, P329A
B8: huBH56-4-IgG (antibody, V domains shown)
VH: B7 VH with V4L, T58Y
notes: Humanized VHH-Fc heavy-chain antibody
B9: huBH56-5-IgG (antibody, V domains shown)
VH: B7 VH with Y94I
notes: as for B8
B10: huBH56-6-IgG (antibody, V domains shown)
VH: B7 VH with V4L, E44G, V45L, T58Y
notes: as for B8
B11: huBH56-3-CD3ScFv (bispecific antibody)
heavy 1: EVQVVESGGGLIQPGGSLRLSCAASGFTFAPSAMSWARQPPGKEVEWVSGIYGDGRTTYADSVKGRFTISRDNSKNTVYLQMNSLRAEDTAVYYCVVGIRLLSESWAQALRGQGTQVTVSSEPKSSDKTHTCPPCPAPEAAGGPSVFLFPPKPKDTLMISRTPEVTCVVVAVSHEDPEVKFNWYVDGVEVHNAKTKPREEQYNSTYRVVSVLTVLHQDWLNGKEYKCKVSNKALAAPIEKTISKAKGQPREPQVCTLPPSRDELTKNQVSLSCAVKGFYPSDIAVEWESNGQPENNYKTTPPVLDSDGSFFLVSKLTVDKSRWQQGNVFSCSVMHEALHNHYTQKSLSLSPGK
heavy 2: not shown
notes: HC1 huBH56-3-hole (VHH, EPKSS, Fc hole); HC2 CD3ScFv-knob (CD3 VH, linker, CD3 VL, EPKSS, Fc knob); also called anti-CD3/BCMA bispecific antibody; diabody
B12: huHA68-4-IgG (antibody, V domains shown)
VH: EVQLVETGGGLIQPGGSLRLSCAASGFTFSPSAMSWARQAPGKGLEWVSGIYGDGKAEYADSVKGRFTISRDNSKNTVYLQMNSLRAEDTAVYSCAVGIRPTDAPWAASLRGQGTLVTVSS
notes: as for B8
B13: huHA68-3-IgG (antibody, V domains shown)
VH: B12 VH with S94Y
notes: as for B8
B14: HA68-IgG (antibody, V domains shown)
VH: B12 VH with E1Q, I12V, S35N, S49A, S74A, T77M, N83V, S84N, A87P, L116Q
notes: as for B6

Columns and labels:
[1] = target: T3, human GPRC5D protein expressed on the cell surface (human, UniProt Q9NZD1 1-345); test: flow cytometry on 293T-huGPRC5D cells
T3 construct: NP_061124.1 (NCBI) and Q9NZD1 (UniProt) are printed; also called CHO-K1-huGPRC5D
T3 sequence (Q9NZD1 whole entry): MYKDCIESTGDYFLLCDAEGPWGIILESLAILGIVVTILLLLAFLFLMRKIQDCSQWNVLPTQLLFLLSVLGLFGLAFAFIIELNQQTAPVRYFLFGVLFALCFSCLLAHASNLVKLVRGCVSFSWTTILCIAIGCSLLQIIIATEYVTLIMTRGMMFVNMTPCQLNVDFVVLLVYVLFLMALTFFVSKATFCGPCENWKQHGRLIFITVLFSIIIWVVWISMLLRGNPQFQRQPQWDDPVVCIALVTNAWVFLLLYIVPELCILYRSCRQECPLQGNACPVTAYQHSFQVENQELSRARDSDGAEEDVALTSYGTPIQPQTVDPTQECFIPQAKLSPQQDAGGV

[2] = target: T1, human BCMA protein expressed on the …; test: flow cytometry on CHOK1-huBCMA cells
[3] = target: T2, human BCMA-His protein (ACRO, Cat#: …); test: BLI (ForteBio Octet RED96e), antibody on AHC sensor, 100 nM human BCMA-His, 1:1 model

| Binder | binding result [1] | binding result [2] | Kd [3] [pM] | koff [3] [s⁻¹] | kon [3] [M⁻¹ s⁻¹] |
| --- | --- | --- | --- | --- | --- |
| B1 | binds | – | – | – | – |
| B2 | – | binds | – | – | – |
| B3 | – | binds | – | – | – |
| B4 | – | – | 1510 | 0.00155 | 1e+06 |
| B5 | – | binds | – | – | – |
| B6 | – | – | < 1 | < 1e-07 | 1e+06 |
| B7 | – | – | < 1 | < 1e-07 | 1e+06 |
| B8 | – | – | < 1 | < 1e-07 | 1e+06 |
| B9 | – | – | < 1 | < 1e-07 | 1e+06 |
| B10 | – | – | < 1 | < 1e-07 | 979000 |
| B11 | – | binds | – | – | – |
| B12 | – | – | < 1 | < 1e-07 | 1e+06 |
| B13 | – | – | < 1 | < 1e-07 | 1e+06 |
| B14 | – | – | < 1 | < 1e-07 | 1e+06 |

Reference: EP4803549A1 (Leads Biolabs Inc., dated 2026)
